Measurements: PMC9266650

Biological target: T148-ADP-ribosylated-actin (100% TccC3-ADP-ribosylated actin) (not stated (purified from rabbit or chicken skeletal muscle)), P68135
Details: remark: other sources report otherwise

B1: Actin-depolymerizing factor, P60981 1-165 (natural protein)
chain: MASGVQVADEVCRIFYDMKVRKCSTPEEIKKRKKAVIFCLSADKKCIIVEEGKEILVGDVGVTITDPFKHFVGMLPEKDCRYALYDASFETKESRKEELMFFLWAPELAPLKSKMIYASSKDAIKKKFQGIKHECQANGPEDLNRACIAEKLGGSLIVAFEGCPV
other: 15 fold
